{"source": "patent US20030171565", "tested_on": "protein zero related (PZR), tyrosine-phosphorylated", "sequence (chain, as listed by the source)": "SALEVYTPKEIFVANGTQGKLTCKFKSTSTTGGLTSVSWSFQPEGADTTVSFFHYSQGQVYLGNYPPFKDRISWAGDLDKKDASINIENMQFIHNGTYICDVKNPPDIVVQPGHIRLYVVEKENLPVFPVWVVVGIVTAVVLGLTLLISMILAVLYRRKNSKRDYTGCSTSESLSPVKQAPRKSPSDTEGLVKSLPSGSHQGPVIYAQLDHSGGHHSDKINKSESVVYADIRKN"}
{"substance": "tyrosine phosphatase SHP-1", "values": [{"measurement": "dephosphorylation of purified p43 in vitro (anti-phosphotyrosine Western blot)", "result": "SHP-1 only produced a partial dephosphorylation"}]}
